Results from article PMC2447227, “The Interaction Between Endopolygalacturonase From Fusarium Moniliforme and PGIP from Phaseolus Vulgaris Studied by Surface Plasmon Resonance and Mass Spectrometry” (Comparative and Functional Genomics, 2001).

Legend:
[1] = target: T1, endopolygalacturonase from Fusarium moniliforme, native (glycosylated) enzyme expressed in Saccharomyces … (Fusarium moniliforme, UniProt Q07181 25-373, N-linked high-mannose type glycans (up to 14 Man residues in the chain at Asn65); four potential N-glycosylation sites; glycoforms of 43, 46 and 50 kDa); assay: SPR; PGIP-2 immobilised by amine coupling on a CM5 chip (4000-5000 RU), BIACORE X; PG solutions in 25 mM ammonium acetate buffer pH 5.0 injected at 5 ul/min; buffer-treated reference flow-cell; bound deglycosylated enzyme eluted with NH4HCO3 pH 8 and analysed by MALDI-TOF MS; details: both partners purified
T1 construct: endopolygalacturonase (PG), Fusarium moniliforme; calculated mass of the polypeptide 36198 Da (36.2 kDa); also called FmPG; PG; source: expressed in Saccharomyces cerevisiae, purified
T1 sequence: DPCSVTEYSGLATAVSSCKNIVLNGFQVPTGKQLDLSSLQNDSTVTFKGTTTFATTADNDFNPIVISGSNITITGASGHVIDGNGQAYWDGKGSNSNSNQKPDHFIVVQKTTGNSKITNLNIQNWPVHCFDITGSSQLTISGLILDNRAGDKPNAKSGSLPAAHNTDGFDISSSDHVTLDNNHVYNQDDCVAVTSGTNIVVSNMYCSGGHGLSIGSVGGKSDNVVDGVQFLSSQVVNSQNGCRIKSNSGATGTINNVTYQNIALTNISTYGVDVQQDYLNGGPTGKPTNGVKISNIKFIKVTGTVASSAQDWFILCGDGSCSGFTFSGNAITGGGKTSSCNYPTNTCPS

[2] = target: T2, endopolygalacturonase from Fusarium moniliforme deglycosylated with endo-H (Fusarium moniliforme, UniProt Q07181 25-373, a single GlcNAc residue at each of the four N-glycosylation sites (observed mass 37110 Da against 36198 Da calculated for the polypeptide)); assay: as above; details: both partners purified
T2 construct: endopolygalacturonase (PG), Fusarium moniliforme; the same polypeptide as m2, glycans trimmed by endo-H; calculated mass of the polypeptide 36198 Da; also called PG + EndoH; deglycosylated FmPG; source: expressed in Saccharomyces cerevisiae, purified, deglycosylated with endo-H
T2 sequence: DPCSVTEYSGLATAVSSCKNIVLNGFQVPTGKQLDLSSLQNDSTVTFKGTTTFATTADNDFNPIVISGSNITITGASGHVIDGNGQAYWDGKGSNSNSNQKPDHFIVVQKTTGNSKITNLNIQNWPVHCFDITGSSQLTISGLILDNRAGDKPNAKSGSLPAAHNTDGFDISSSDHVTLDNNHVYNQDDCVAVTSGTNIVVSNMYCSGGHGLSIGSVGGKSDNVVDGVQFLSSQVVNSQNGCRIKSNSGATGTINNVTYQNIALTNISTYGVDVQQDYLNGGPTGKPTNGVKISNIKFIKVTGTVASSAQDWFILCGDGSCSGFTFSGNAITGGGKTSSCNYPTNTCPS

B1: polygalacturonase-inhibiting protein PGIP-2 of Phaseolus vulgaris (natural protein, UniProt P58822 30-342, looked up)
chain: ELCNPQDKQALLQIKKDLGNPTTLSSWLPTTDCCNRTWLGVLCDTDTQTYRVNNLDLSGLNLPKPYPIPSSLANLPYLNFLYIGGINNLVGPIPPAIAKLTQLHYLYITHTNVSGAIPDFLSQIKTLVTLDFSYNALSGTLPPSISSLPNLVGITFDGNRISGAIPDSYGSFSKLFTSMTISRNRLTGKIPPTFANLNLAFVDLSRNMLEGDASVLFGSDKNTQKIHLAKNSLAFDLGKVGLSKNLNGLDLRNNRIYGTLPQGLTQLKFLHSLNVSFNNLCGEIPQGGNLQRFDVSAYANNKCLCGSPLPACT
notes: a leucine-rich repeat protein; also called bean PGIP-2; source: Nicotiana benthamiana plants infected with PVX, purified
binding result [1]: binds
binding result [2]: binds
